# Laboratory results reported in publication PMC6009646, “Regional conformational flexibility couples substrate specificity and scissile phosphate diester selectivity in human flap endonuclease 1”.
# Target: hFEN1QF (Homo sapiens, UniProt P39748 1-336, E120C;C235A;S293C;C311A)
# Assay: single-molecule FRET; 8 mM Ca2+; 20 nM DNA, ~50 pM protein; NMR: 10 mM HEPES-KOH pH 7.5, 6 mM KCl (76 mM KCl in titration), 0.1 mM EDTA, 4 mM NaN3, 100 mM bME, 298 K; smFRET: 55 mM HEPES-KOH pH 7.5, 110 mM KCl, 8 mM CaCl2, 0.1 mg/ml BSA, 1 mM DTT, room temperature
# Details: protein: recombinant; tags: C-terminal HRV 3C-cleavable His6, cleaved; six residual C-terminal residues of the 3C site; bimolecular double flap: 5-nt 5' flap, 1-nt 3' flap; T1 has a GAA hairpin; F1:T1 annealed 1:1.1
# hFEN1QF, sequence (P39748 1-336 E120C/C235A/S293C/C311A): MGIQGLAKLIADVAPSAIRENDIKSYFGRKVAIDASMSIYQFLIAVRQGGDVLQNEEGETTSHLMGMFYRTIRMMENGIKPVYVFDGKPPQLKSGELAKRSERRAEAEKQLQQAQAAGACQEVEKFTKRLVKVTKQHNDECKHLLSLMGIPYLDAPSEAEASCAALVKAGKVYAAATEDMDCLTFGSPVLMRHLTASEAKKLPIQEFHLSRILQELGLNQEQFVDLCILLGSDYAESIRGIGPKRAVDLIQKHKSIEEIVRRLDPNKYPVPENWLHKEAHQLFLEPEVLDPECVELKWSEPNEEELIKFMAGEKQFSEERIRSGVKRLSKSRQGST
binder,measurement,value
"DF5,1 (F1/T1) (structured_DNA) DNA 1: TTTTTACAAGGACTGCTCGACAC DNA 2: GTGTCGAGCAGTCCTTGTGACGACGAAGTCGTCC",binding result,binds
